Laboratory results as given in paper PMC3408419 (Molecular Biology of the Cell, 2012).
Values joined by “and” are separate entries in the source; they are usually repeats but may differ in a detail not shown here. Identical values can stand only once.

B1: Sec13/31 complex (complex)
chain 1: MVVIANAHNELIHDAVLDYYGKRLATCSSDKTIKIFEVEGETHKLIDTLTGHEGPVWRVDWAHPKFGTILASCSYDGKVLIWKEENGRWSQIAVHAVHSASVNSVQWAPHEYGPLLLVASSDGKVSVVEFKENGTTSPIIIDAHAIGVNSASWAPATIEEDGEHNGTKESRKFVTGGADNLVKIWKYNSDAQTYVLESTLEGHSDWVRDVAWSPTVLLRSYLASVSQDRTCIIWTQDNEQGPWKKTLLKEEKFPDVLWRASWSLSGNVLALSGGDNKVTLWKENLEGKWEPAGEVHQ
chain 2: MVKLAEFSRTATFAWSHDKIPLLVSGTVSGTVDANFSTDSSLELWSLLAADSEKPIASLQVDSKFNDLDWSHNNKIIAGALDNGSLELYSTNEANNAINSMARFSNHSSSVKTVKFNAKQDNVLASGGNNGEIFIWDMNKCTESPSNYTPLTPGQSMSSVDEVISLAWNQSLAHVFASAGSSNFASIWDLKAKKEVIHLSYTSPNSGIKQQLSVVEWHPKNSTRVATATGSDNDPSILIWDLRNANTPLQTLNQGHQKGILSLDWCHQDEHLLLSSGRDNTVLLWNPESAEQLSQFPARGNWCFKTKFAPEAPDLFACASFDNKIEVQTLQNLTNTLDEQETETKQQESETDFWNNVSREESKEKPTVFHLQAPTWYGEPSPAAHWAFGGKLVQITPDGKGVSITNPKISGLESNTTLSEALKTKDFKPLINQRLVKVIDDVNEEDWNLLEKLSMDGTEEFLKEALAFDNDESDAQDDANNEKEDDGEEFFQQIETNFQPEGDFSLSGNIEQTISKNLVSGNIKSAVKNSLENDLLMEAMVIALDSNNERLKESVKNAYFAKYGSKSSLSRILYSISKREVDDLVENLDVSQWKFISKAIQNLYPNDIAQRNEMLIKLGDRLKENGHRQDSLTLYLAAGSLDKVASIWLSEFPDLEDKLKKDNKTIYEAHSECLTEFIERFTVFSNFINGSSTINNEQLIAKFLEFINLTTSTGNFELATEFLNSLPSDNEEVKTEKARVLIASGKSLPAQNPATATTSKAKYTNAKTNKNVPVLPTPGMPSTTSIPSMQAPFYGMTPGASANALPPKPYVPATTTSAPVHTEGKYAPPSQPSMASPFVNKTNSSTRLNSFAPPPNPYATATVPATNVSTTSIPQNTFAPIQPGMPIMGDYNAQSSSIPSQPPINAVSGQTPHLNRKANDGWNDLPLKVKEKPSRAKAVSVAPPNILSTPTPLNGIPANAASTMPPPPLSRAPSSVSMVSPPPLHKNSRVPSLVATSESPRASISNPYAPPQSSQQFPIGTISTANQTSNTAQVASSNPYAPPPQQRVATPLSGGVPPAPLPKASNPYAPTATTQPNGSSYPPTGPYTNNHTMTSPPPVFNKPPTGPPPISMKKRSNKLASIEQNPSQGATYPPTLSSSASPLQPSQPPTLASQVNTSAENVSHEIPADQQPIVDFLKEELARVTPLTPKEYSKQLKDCDKRLKILFYHLEKQDLLTQPTIDCLHDLVALMKEKKYKEAMVIHANIATNHAQEGGNWLTGVKRLIGIAEATLN

Experiments:
[1] = target: MBP-Sec16-mOrange (S. cerevisiae) (UniProt P48415); assay: single-molecule photobleaching
Sec23/24 complex = Sec23/24 complex (S. cerevisiae, UniProt P15303;P40482); assay: liposome flotation
Chain of Sec23/24 complex (P15303 whole entry, chain 1 of 2): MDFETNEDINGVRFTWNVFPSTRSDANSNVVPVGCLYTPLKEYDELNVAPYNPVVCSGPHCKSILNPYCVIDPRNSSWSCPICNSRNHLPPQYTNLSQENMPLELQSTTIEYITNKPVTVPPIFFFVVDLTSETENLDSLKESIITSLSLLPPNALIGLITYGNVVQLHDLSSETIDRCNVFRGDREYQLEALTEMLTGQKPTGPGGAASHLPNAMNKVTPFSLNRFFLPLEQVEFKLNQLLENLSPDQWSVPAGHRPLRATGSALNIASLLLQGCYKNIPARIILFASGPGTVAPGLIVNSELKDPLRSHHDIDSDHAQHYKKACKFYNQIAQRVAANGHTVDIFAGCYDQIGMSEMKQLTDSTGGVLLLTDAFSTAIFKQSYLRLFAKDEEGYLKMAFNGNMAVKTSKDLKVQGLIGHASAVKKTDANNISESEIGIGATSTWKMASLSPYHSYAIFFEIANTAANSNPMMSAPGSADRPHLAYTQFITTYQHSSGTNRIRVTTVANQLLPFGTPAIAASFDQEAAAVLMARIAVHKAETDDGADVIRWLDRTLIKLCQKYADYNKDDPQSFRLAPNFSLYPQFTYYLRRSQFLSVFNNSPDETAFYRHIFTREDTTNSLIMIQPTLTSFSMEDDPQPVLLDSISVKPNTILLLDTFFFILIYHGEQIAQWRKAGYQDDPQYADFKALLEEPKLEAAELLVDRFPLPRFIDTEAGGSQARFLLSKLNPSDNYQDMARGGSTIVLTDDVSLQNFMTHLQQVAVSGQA
Chain of Sec23/24 complex (P40482 whole entry, chain 2 of 2): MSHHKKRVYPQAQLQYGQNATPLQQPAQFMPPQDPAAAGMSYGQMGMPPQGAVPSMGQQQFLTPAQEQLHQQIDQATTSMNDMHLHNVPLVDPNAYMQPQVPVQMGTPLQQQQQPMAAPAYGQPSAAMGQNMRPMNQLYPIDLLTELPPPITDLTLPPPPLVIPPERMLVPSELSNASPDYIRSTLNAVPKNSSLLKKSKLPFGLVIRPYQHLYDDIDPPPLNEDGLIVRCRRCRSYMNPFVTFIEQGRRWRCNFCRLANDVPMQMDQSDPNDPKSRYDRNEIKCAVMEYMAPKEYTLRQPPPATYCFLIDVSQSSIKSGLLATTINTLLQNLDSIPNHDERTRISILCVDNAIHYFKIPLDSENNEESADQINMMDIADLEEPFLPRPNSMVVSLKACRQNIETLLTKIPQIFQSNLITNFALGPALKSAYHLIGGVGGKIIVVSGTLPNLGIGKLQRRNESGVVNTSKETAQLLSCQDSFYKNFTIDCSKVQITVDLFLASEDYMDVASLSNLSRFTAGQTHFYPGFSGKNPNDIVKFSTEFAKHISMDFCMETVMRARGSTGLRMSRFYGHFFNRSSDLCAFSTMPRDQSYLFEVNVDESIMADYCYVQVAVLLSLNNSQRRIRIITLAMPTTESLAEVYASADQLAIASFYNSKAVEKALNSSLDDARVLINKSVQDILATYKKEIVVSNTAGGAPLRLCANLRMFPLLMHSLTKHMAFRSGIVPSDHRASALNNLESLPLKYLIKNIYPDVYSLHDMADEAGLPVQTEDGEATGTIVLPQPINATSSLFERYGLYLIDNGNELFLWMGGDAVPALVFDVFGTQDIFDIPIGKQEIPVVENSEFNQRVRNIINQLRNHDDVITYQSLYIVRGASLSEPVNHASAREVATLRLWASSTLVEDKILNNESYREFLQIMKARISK

Row | Molecule | stoichiometry N [1] | binding result (Sec23/24 complex)
1 | MBP-Sec16-mOrange, P48415 1-2195 | 4 and 6 | 
2 | B1 |  | binds
